# From patent US12662540B2, “Compositions and methods for inhibition of MICA/B shedding” (DANA-FARBER CANCER INSTITUTE, INC., priority 2017, dated 2026)
# How the values were obtained:
# A375 melanoma cell line = test: In vitro assay for inhibition of MICA shedding, A375 cells (sandwich ELISA of supernatant); format: cell-based, human; conditions: A375 cells treated for 24 hours
# Experimental: Tumor cells (5×10^4 or 1×10^5 per well, depending on the cell line) were cultured for 24 to 72 hours in 96-well plates (flat-bottom plates for adherent cell lines, U-bottom plates for suspension cell lines). Human and murine cell lines were cultivated in RPMI-1640 or DMEM media, respectively, supplemented with 10% fetal bovine serum (FBS), 1× Glutamax® (Gibco), and 1× Penicillin and Streptomycin (Gibco). MICA or control antibodies were added at different concentrations, and shed MICA/B was then detected in supernatants by ELISA using the Human MICA ELISA kit (Ab59569, Abcam) or Human MICB DuoSet ELISA kit (DY1599, R&D Systems), using the procedures recommended by the manufacturers. For both assays, standard curves were generated using recombinant MICA*008 or MICB*005 extracellular domain proteins that had been expressed using the Baculovirus system.
# [1] = test system: murine tumor cell lines (B16F10, CT26, Neuro-2a) expressing full-length MICA or MICB; test: Shed and surface MICA/MICB in murine tumor cell lines transduced with full-length MICA or MICB; format: cell-based, mouse; conditions: B16F10 cells expressing MICA or MICB; comparison among mAbs
# Source text: B16F10, CT26, Neuro-2a, EL4 and RMA-S cell lines were transduced with lentiviral vector pHAGE-CMV-fullEF1a. MICA (allele 009) cDNA or other inserts were placed between NotI and BamHI cloning sites, 3′ to the EF1α promoter and 5′ to the IRES. ZsGreen or luciferase cDNAs were cloned 3′ to the IRES as fluorescence or bioluminescence reporters, respectively. The vector with the ZsGreen reporter was used to compare expression of cDNAs encoding full length MICA, full-length MICB and secreted MICA (Neuro-2a, RMA-S and/or B16F10 cell lines). CT26, EL4 and B16F10 cell lines were transduced with the vector that supported expression of the luciferase reporter. […]
# Tumor cells (5×10^4 or 1×10^5 per well, depending on the cell line) were cultured for 24 to 72 hours in 96-well plates (flat-bottom plates for adherent cell lines, U-bottom plates for suspension cell lines). […] MICA or control antibodies were added at different concentrations, and shed MICA/B was then detected in supernatants by ELISA using the Human MICA ELISA kit (Ab59569, Abcam) or Human MICB DuoSet ELISA kit (DY1599, R&D Systems), using the procedures recommended by the manufacturers. […]
# MICA and MICB were detected on the cell surface by the PE-conjugated anti-MICA/B antibody (clone 6D4, 320906, Biolegend). […] All samples were acquired in a BD LSR Fortessa flow cytometer, and analyzed by FlowJo V10 software.
# MICA α3 domain = test: ELISA for antibody binding to immobilized MICA α3 domain; set-up: species or system human; conditions: fluorescence-based ELISA, immobilized antigen
# Experimental: ELISA experiments were performed in DELFIA® 96-well plates (Perkin Elmer) or in Nunc Maxisorp 96-wells plates (Thermo Scientific). Wells were coated with antigens by overnight incubation at 4° C. using 100 ng of protein in 100 μl of carbonate buffer, […]. Plates were subsequently washed with 1× Tris-buffered saline-Tween buffer and incubated for 2 hours with 2% bovine serum albumin (BSA) in phosphate buffered saline (PBS), pH 7.4, or DELFIA® Assay Buffer (Perkin Elmer) at room temperature. MICA antibodies were used at 1 μg/ml, unless indicated otherwise. Isotype controls were MPC-11 (mIgG2b) and MOPC-21 (mIgG1), but only MPC-11 is shown in the figures, given that no differences were observed between these controls. Human isotype control was a recombinant human IgG1 antibody (BE0096, BioXcell). Biotinylated goat anti-mouse IgG (Poly4053—Biolegend) was used as the secondary antibody which was followed by streptavidin-Europium (Perkin Elmer) and DELFIA® Enhancement Solution (Perkin Elmer). Europium fluorescence was quantified using an EnVision® microplate reader (Perkin Elmer). The HRP-conjugated secondary antibodies were Novex® Goat anti-human IgG (A24470, Life Technologies), Goat anti-mouse IgG1 (1070-05), IgG2a (1080-08), IgG2b (1090-05), and IgG3 (1100-05), and Goat anti-mouse IgG (31430, Thermo Scientific). […] Absorbance was read at 450 nm.
# [2] = test system: A375 human melanoma cell line; test: Dacarbazine combination with MICA/B antibody, A375 cells; format: cell-based
molecule,measurement,setting,value
"7C6: monoclonal antibody from mice immunized with recombinant MICA α3 domain; parental mIgG2b; VH SEQ ID NO: 7, VL SEQ ID NO: 8 (antibody, mAb 7C6 heavy chain amino acid sequence; mAb 7C6 light chain amino acid sequence) VH: QIQLVQSGPELKKPGETVKVSCKASGYMFTNYAMNWVKQAPEKGLKWMGWINTHTGDPTYADDFKGRIAFSLETSASTAYLQINNLKNEDTATYFCVRTYGNYAMDYWGQGTSVTVSSAKTTAPSVYPLAPVCGDTTGSSVTLGCLVKGYFPEPVTLTWNSGSLSSGVHTFPAVLQSDLYTLSSSVTVTSS VL: DIQMTQTTSSLSASLGDRVTISCSASQDISNYLNWYQQKPDGTVKLLIYDTSILHLGVPSRFSGSGSGTDYSLTISNLEPEDIATYYCQQYSKFPRTFGGGTTLEIK",MICA shedding (shed MICA released into supernatant),A375 melanoma cell line,inhibit MICA release into the supernatant
same,stabilization of MICA/B on the surface of tumor cells,[1],most effective in stabilizing MICAS on the surface of tumor cells
same,binding to MICA α3 domain,MICA α3 domain,bound to the MICA α3 domain
same,"human NK cell killing of A375 cells, dacarbazine combination with MICA/B antibody","[2]; 30 mM dacarbazine, 10 μg/ml 7C6, 48 hours",is increased by dacarbazine combination with MICA/B antibody
same,MICA/B shedding (6D4-PE staining),"[2]; A375, 48 hours, 10 μg/ml antibody with dacarbazine",inhibited MICA/B shedding
